These results are taken from US20220119534A1 (DRAGONFLY THERAPEUTICS, published 2022).

Assay [1] deals with T1, mFc-hNKG2D (human, UniProt P26718 73-216).
T1 construct: extracellular domain; Made in house (Dragonfly Tx); the order of tag and ECD follows the name mFc-hNKG2D; also called mFc-tagged human NKG2D; not shown: mouse Fc tag
T1 sequence (looked up): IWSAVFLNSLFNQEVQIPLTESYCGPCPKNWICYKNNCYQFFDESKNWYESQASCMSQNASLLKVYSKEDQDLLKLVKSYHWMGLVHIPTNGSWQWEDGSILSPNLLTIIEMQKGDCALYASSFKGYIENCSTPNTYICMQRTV
The experiment in a line: SPR Biacore 8K 37 C; mFc-hNKG2D captured on anti-mFc chip, TriNKET as analyte; steady state affinity fit. In general terms: In SPR one partner is held on a chip, and binding of the other changes the refractive index at the surface.

The target in assay [2] is T2, Human CLEC12A-His (human, UniProt Q5QGZ9 65-265).
T2 construct: Recombinant soluble protein made in house (Dragonfly Tx); The hCLEC12A spot of the HuProt array is written under this molecule as well; also called hCLEC12A-His; hCLEC12A; not shown: His tag
T2 sequence: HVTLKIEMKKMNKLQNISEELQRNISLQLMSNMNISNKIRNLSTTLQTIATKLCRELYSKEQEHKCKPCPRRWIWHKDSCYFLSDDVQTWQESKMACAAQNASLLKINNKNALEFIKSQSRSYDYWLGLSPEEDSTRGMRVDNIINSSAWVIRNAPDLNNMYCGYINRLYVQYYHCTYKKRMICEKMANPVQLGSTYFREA
Nature of the assay: SPR Biacore 8K 37 C; TriNKET captured on anti-hFc chip, hCLEC12A-His as analyte; 1:1 fit; pH 8.0 control, n=2.

The target in assay [3] is T3, Human CD16a V158 (FcγRIIIa V158) (human, UniProt P08637 17-208, biotinylated (site not stated)).
T3 construct: V158 is the allele name in mature numbering; also called hCD16aV; hCD16a V158
Nature of the assay: SPR; biotinylated CD16a V158 captured on SA chip, TriNKET as analyte; 1:1 kinetic fit; after low pH hold, n=3.

The target in assay [4] is T1, mFc-hNKG2D. Nature of the assay: SPR Biacore 8K 37 C; mFc-hNKG2D captured on anti-mFc chip, TriNKET as analyte; 1:1 kinetic fit; pH 5.0 control.
Assay [5] has as its target T2, Human CLEC12A-His. Nature of the assay: SPR Biacore 8K 37 C; TriNKET captured on anti-hFc chip, hCLEC12A-His as analyte; 1:1 fit; after 2 wks 25 C in CST pH 7.0, n=2.
Assay [6] addresses T1, mFc-hNKG2D. Nature of the assay: SPR Biacore 8K 37 C; mFc-hNKG2D captured on anti-mFc chip, TriNKET as analyte; steady state fit; after 4 wks 40 C in HST pH 6.0.
Assay [7] addresses T4, Human CLEC12A expressed on cells (Ba/F3-hCLEC12A, PL21, HL60) (human, UniProt Q5QGZ9 1-265).
T4 sequence: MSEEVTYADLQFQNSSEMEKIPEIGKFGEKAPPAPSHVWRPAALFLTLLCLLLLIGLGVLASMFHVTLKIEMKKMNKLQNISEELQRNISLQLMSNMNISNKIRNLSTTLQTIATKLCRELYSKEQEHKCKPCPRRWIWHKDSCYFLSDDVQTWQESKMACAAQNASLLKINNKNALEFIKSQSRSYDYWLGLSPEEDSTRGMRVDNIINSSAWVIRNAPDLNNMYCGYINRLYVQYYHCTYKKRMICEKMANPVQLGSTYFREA
The experiment in a line: cell-based or functional assay.

In assay [8] the target is T5, mFc-hNKG2D (recombinant mFc-tagged human NKG2D dimer) (human, UniProt P26718 73-216).
T5 construct: extracellular domain; Made in house; not shown: mouse Fc tag
T5 sequence (looked up): T1 sequence (looked up)
Nature of the assay: SPR 37C, steady state fit, average.

For assay [9], the target named is T5, mFc-hNKG2D (recombinant mFc-tagged …). The experiment in a line: SPR; after 4 wks 40C in CST pH 7.0.
Assay [10] has as its target T6, Human CD16a V158 (FcγRIIIa V158) (human, UniProt P08637 17-208, biotinylated).
T6 construct: Bought recombinant receptor; also called hCD16aV; hFcγRIIIa V158
The experiment in a line: SPR; after 4 wks 40C in CST pH 7.0.

The target of a further assay is T7, Human CD16b (FcγRIIIb) (human, UniProt O75015 17-200, limits assumed, biotinylated).
T7 construct: Bought recombinant receptor; also called hFcγRIIIb; CD16b (FcγR3b)
Nature of the assay: SPR 25C, biotinylated CD16b captured.

Assay [11] deals with T8, Human CLEC12A-His (recombinant, K244 WT) (human, UniProt Q5QGZ9 65-265).
T8 construct: Made in house (Dragonfly Tx); also called hCLEC12A; hCLEC12A-His; not shown: His tag
T8 sequence: T2 sequence
Nature of the assay: SPR, two-state fit; after forced oxidation.

Assay [12] addresses T8, Human CLEC12A-His (recombinant, K244 WT). The experiment in a line: SPR 37C, AB0089 captured on anti-hFc, two-state fit.
The target of assay [13] is T9, human CLEC12A on cells (HL60, PL21, Ba/F3-hCLEC12A) (human, UniProt Q5QGZ9 1-265).
T9 construct: Endogenous on the AML lines HL60 and PL21; brought into mouse Ba/F3 cells by retroviral transduction; The cell line stands under assay; also called CLL-1
T9 sequence: T4 sequence
The experiment in a line: flow cytometry, HL60 cells. A general note: In flow cytometry, cells or beads pass a laser one at a time.

The target in the next assay is T10, Cynomolgus CD64 (cynomolgus monkey, UniProt A0A2K5U901 33-309, Probably biotinylated for capture, as in the sister examples (p-1094).).
T10 construct: Bought recombinant receptor; also called cFcγRI; Cynomolgus CD64 (FcγRI); not shown: The vendor's biotinylation and purification tag
Nature of the assay: SPR, cynomolgus CD64 captured; average for AB0192.

What is called Kd is the concentration at which binding is half-saturated. For orientation: koff means the first-order rate constant of dissociation. A word on the kon: it is the second-order rate constant of association. What is called EC50 is the concentration at which the effect is half-maximal. Lower therefore signals greater potency.

Substitutions are numbered along the chain they refer to. Names and notes keep the numbering of the source. Values joined by “and” are separate entries in the source; they are usually repeats but may differ in a detail not shown here. Equal entries are not always repeated.

T7 sequence (O75015 17-200 limits assumed): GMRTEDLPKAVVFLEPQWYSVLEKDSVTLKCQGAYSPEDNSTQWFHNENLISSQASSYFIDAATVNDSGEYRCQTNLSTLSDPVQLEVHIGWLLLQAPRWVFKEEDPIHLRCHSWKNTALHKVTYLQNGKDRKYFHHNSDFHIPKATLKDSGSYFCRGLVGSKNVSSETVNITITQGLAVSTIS
T3 sequence (P08637 17-208 F176V limits assumed): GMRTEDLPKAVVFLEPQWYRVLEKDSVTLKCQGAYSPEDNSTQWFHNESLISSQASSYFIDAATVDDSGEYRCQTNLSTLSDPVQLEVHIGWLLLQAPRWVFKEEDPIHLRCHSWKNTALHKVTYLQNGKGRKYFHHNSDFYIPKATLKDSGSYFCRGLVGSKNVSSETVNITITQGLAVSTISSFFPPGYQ
T6 sequence (P08637 17-208 F176V limits assumed): as above
T10 sequence (A0A2K5U901 entry or part of it limits assumed): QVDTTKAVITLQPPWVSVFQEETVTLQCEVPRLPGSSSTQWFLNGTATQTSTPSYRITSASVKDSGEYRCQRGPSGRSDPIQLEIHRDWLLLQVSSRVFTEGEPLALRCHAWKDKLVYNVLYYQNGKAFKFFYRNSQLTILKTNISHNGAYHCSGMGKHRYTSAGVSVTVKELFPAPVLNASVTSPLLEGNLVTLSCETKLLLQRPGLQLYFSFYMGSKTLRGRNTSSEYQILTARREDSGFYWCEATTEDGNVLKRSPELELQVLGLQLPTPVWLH

B1: F3'-1602 TriNKET (bispecific antibody, human IgG1, kappa)
chain: QLQLQESGPGLVKPSETLSLTCTVSGFSLTNYGLHWIRQPPGKCLEWIGVIWSGGKTDYNPSLKSRVTISKDTSKNQFSLKLSSVQAADTAVYYCAKYDYDDSLDYWGQGTLVTVSSGGGGSGGGGSGGGGSGGGGSDIQMTQSPSSLSASVGDRVTITCHASQNINFWLSWYQQKPGKAPKLLIYEASNLHTGVPSRFSGSGSGTRFTLTISSLQPEDIATYYCQQSHSYPLTFGCGTKLEIKGSDKTHTCPPCPAPELLGGPSVFLFPPKPKDTLMISRTPEVTCVVVDVSHEDPEVKFNWYVDGVEVHNAKTKPREEQYNSTYRVVSVLTVLHQDWLNGKEYKCKVSNKALPAPIEKTISKAKGQPREPRVYTLPPCRDELTKNQVSLTCLVKGFYPSDIAVEWESNGQPENNYKTTPPVLVSDGSFTLYSKLTVDKSRWQQGNVFSCSVMHEALHNHYTQKSLSLSPG
heavy: EVQLVESGGGLVKPGGSLRLSCAASGFTFSSYSMNWVRQAPGKGLEWVSSISSSSSYIYYADSVKGRFTISRDNAKNSLYLQMNSLRAEDTAVYYCARGAPIGAAAGWFDPWGQGTLVTVSSASTKGPSVFPLAPSSKSTSGGTAALGCLVKDYFPEPVTVSWNSGALTSGVHTFPAVLQSSGLYSLSSVVTVPSSSLGTQTYICNVNHKPSNTKVDKKVEPKSCDKTHTCPPCPAPELLGGPSVFLFPPKPKDTLMISRTPEVTCVVVDVSHEDPEVKFNWYVDGVEVHNAKTKPREEQYNSTYRVVSVLTVLHQDWLNGKEYKCKVSNKALPAPIEKTISKAKGQPREPQVCTLPPSRDELTENQVSLTCLVKGFYPSDIAVEWESNGQPENNYKTTPPVLDSDGSFFLYSWLTVDKSRWQQGNVFSCSVMHEALHNHYTQKSLSLSPG
light: DIQMTQSPSSVSASVGDRVTITCRASQGISSWLAWYQQKPGKAPKLLIYAASSLQSGVPSRFSGSGSGTDFTLTISSLQPEDFATYYCQQGVSFPRTFGGGTKVEIKRTVAAPSVFIFPPSDEQLKSGTASVVCLLNNFYPREAKVQWKVDNALQSGNSQESVTEQDSKDSTYSLSSTLTLSKADYEKHKVYACEVTHQGLSSPVTKSFNRGEC
notes: Trispecific F3' format: CLEC12A scFv-Fc paired with NKG2D Fab-Fc; Stressed and control samples of the stability studies are the same molecule; also called AB0237
For B1, the Kd with mFc-hNKG2D [1] is 709 nM and 751 nM and 740 nM; with Human CLEC12A-His [2] it was 1.1 nM; in [3] it was 210 nM; with mFc-hNKG2D [4], 678 nM; with Human CLEC12A-His [5], 0.93 nM; with mFc-hNKG2D [6], 776 nM. In addition, the koff in the assay with Human CLEC12A-His [2] was 0.00084 s⁻¹; in [3], 0.0229 s⁻¹; with mFc-hNKG2D [4], 0.128 s⁻¹; in the assay with Human CLEC12A-His [5] it was 0.000765 s⁻¹. Moreover, the kon with Human CLEC12A-His [2] came out at 801000 M⁻¹ s⁻¹; in assay [3] it was 109000 M⁻¹ s⁻¹; with mFc-hNKG2D [4], 189000 M⁻¹ s⁻¹; with Human CLEC12A-His [5], 824000 M⁻¹ s⁻¹.

B2: AB0089 TriNKET (bispecific antibody, human IgG1, kappa)
chain: B1 chain with S53V, K56A, K71V, Y98G, D101G, S103T, R207D, I220F
heavy: B1 heavy
light: B1 light
notes: F3' format heterodimer of three chains; human IgG1 Fc with EW-RVT and Y349C/S354C mutations; also called AB0089 Lot AB0089-002; CLEC12A TriNKET AB0089
As for B2, the “EC50, lysis of PL21 cells by NK cells, with sMIC-A-Fc” value in assay [7] worked out at 0.26 nM. Further, the “EC50, lysis of PL21 cells by NK cells, without sMIC-A-Fc” value in assay [7] turned out to be 0.32 nM. For the same molecule, the Kd in assay [8] was 884 nM; in assay [9], 791 nM; in assay [10] it was 342 nM; in the assay with Human CD16b (FcγRIIIb), 10300 nM and 8800 nM and 7400 nM; in assay [11] it was 0.9 nM; in assay [12] it was 0.69 nM and 0.75 nM and 0.78 nM. Moreover, the koff in [9] was determined as 0.126 s⁻¹; in [10], 0.0284 s⁻¹. Besides, the values for the on-rate (kon) in [9] and in assay [10] were 160000 M⁻¹ s⁻¹ and 83100 M⁻¹ s⁻¹, respectively.

B3: AB0192 TriNKET (other)
chain: EVQLVESGGGVVQPGGSLRLSCAASGFTFNAFGMHWVRQAPGKCLEWVAFISSGSTSIYYANTVKGRFTISRDNSKNTLYLQMNSLRAEDTAVYYCARDGYPTGGAMDYWGQGTSVTVSSGGGGSGGGGSGGGGSGGGGSDIQMTQSPSSLSASVGDRVTITCKASQDIYNYLSWFQQKPGKAPKPLIYRANILVSGVPSRFSGSGSGQDYTFTISSLQPEDIATYYCLQFDAFPFTFGCGTKLEIKGSDKTHTCPPCPAPELLGGPSVFLFPPKPKDTLMISRTPEVTCVVVDVSHEDPEVKFNWYVDGVEVHNAKTKPREEQYNSTYRVVSVLTVLHQDWLNGKEYKCKVSNKALPAPIEKTISKAKGQPREPRVYTLPPCRDELTKNQVSLTCLVKGFYPSDIAVEWESNGQPENNYKTTPPVLVSDGSFTLYSKLTVDKSRWQQGNVFSCSVMHEALHNHYTQKSLSLSPG
heavy: B1 heavy
light: B1 light
notes: the condition stands under assay; also called AB0192 Lot AB0192-005
Consider B3, for which, in [13], the 50% effective concentration (EC50) was 0.61 nM and the “FOB (fold over background)” value turned out to be 42 fold. In the assay with Cynomolgus CD64, this molecule returned a Kd of 1.9 nM, a koff of 0.00012 s⁻¹ and a kon of 62000 M⁻¹ s⁻¹.
